Data: US10669350B2, “Antigen-binding constructs that bind to and inhibit catalase and/or superoxide dismutase as well as pharmaceutical compositions containing them for tumor therapy” (priority 2015, dated 2020)
“Also recorded” adds a separate entry of the source.

B1: aSODcb0989: single domain VHH fragment that binds to and neutralizes human SOD1; SEQ ID NO: 15 (protein)
VHH: MAQVQLVESGGGLVQSGGSLTLSCTASGFTISNYPMTWVRQAPGKGLEWVSRINSGGDRTLYADSVKGRFTVSRDNARNTMYLQMNNLKPEDTGLYFCADSGAGWRYWGQGTQVTVSSKKKHHHHHH
modifications: SOD binding
B2: aSODcb0991: single domain VHH fragment binding to human SOD1, but not neutralizing; SEQ ID NO: 16 (protein)
VHH: MAQVQLVESGGGIVQPGGSLRLSCVASESISDIDAMYWHRQAPGKRRELVAGITNDGTEYFADSVKGRFAISRDNTKSSLYLQMNSLKLEDTAMYYCATLPNPPPGYWGQGTQVTVSSKKKHHHHHH
modifications: SOD binding

Experiments:
[1] = test system: MKN-45 gastric carcinoma cells; experiment: Standard preparation for autocrine ROS-controlled apoptosis induction in tumor cells (percentage of apoptotic cells); format: cell-based, human
Protocol: (§1) The experiments shown in FIG. 13-24 were carried out with a standard preparation for the apoptosis induction that is based on the method performed in Heinzelmann and Bauer 2010. The tumor cells used were taken from an optimally growing semi-sealed culture, centrifuged and placed in fresh medium. The test was performed in 96-well cell culture plates with 12 500 MKN-45 cells/100 μl medium or 10 000 SHEP cells/100 μl medium. MKN-45 cells grow in suspension, SHEP cells are adherent. The tests with SHEP cells were started as soon as the cells had grown on. By adding increasing concentrations of single domain VHH fragments that either inhibit catalase or SOD the protection of the tumor cells from their own ROS signaling was annulled so that based on the cell-owned extracellular superoxide anion production the NO/peroxynitrite signal path and the HOCl path (with MKN-45 cells) or in case of the SHEP cells only the NO/peroxynitrite path could start when the cells were incubated at 37° C. The analysis of the signal paths was carried out by the application of inhibitors of the NADPH oxidase (AEBSF), the HOCl scavenger taurine, the peroxynitrite scavenger FeTPPS and the singlet oxygen scavenger histidine. In some experiments for comparison instead of the single domain VHH fragments either recombinant Fab fragments or monoclonal antibodies were applied. This is indicated in the respective illustrations.
Double preparations were examined at the times shown in the text by means of phase contrast reverse microscopy for the percentage of apoptotic cells. Here, the classical apoptosis criteria described and documented in Heinzelmann and Bauer 2010 such as condensation of the nucleus, fragmentation of the nucleus, and membrane blebbing were used. Per single preparation at least 250 randomly selected cells were examined for the presence of apoptosis features. […]

human SOD1 [2] = biological target: T1, human SOD1 (Homo sapiens, UniProt P00441); experiment: ELISA selection of clones binding to human SOD1
From the text: The preparation was by immunizing alpacas with human SOD1 (SOD1=Cu/ZnSOD [EC 1.15.1.1] purified from human erythrocytes, obtained from Sigma (Schnelldorf), catalogue number S 9636) under supervision of a veterinary, obtaining RNA from the B cells of the animals, reverse transcription, cloning in E. coli and isolation via the phage display technology. […] In a second run, by employing the cell culture system described by Heinzelmann and Bauer (Multiple protective functions of catalase against intercellular apoptosis-inducing ROS signaling of human tumor cells, Biol. Chem. 391, 675-693, 2010) it was checked which of the single domain VHH fragments binding to SOD actually results in an inhibition of SOD, what is expressed in the tumor system used as ROS-dependent apoptosis induction in the cells, since by the inhibition of SOD the concentration of free superoxide anions dramatically increases due to the absence of the enzymatic dismutation and results in a parallel indirect inhibition of catalase. In the following, this is expressed as ROS-dependent apoptosis induction. In a further control trial the specific inhibition of SOD by recombinant single domain VHH fragments was verified by the fact that the increasing effect of these fragments on apoptosis induction by exogenously added HOCl was examined, as described in Bauer 2013 (HOCl-dependent singlet oxygen and hydroxyl radical generation modulate and induce apoptosis of malignant cells. Anticancer Res 33: 3589-3602, 2013).

[3] = test system: human colon carcinoma xenotransplant; experiment: Growth of human colon carcinoma xenotransplant on immunocompromised mice; format: in vivo
Protocol: The experiments carried out in FIGS. 28A and 28B and FIG. 29 were carried out by a commercial certified supplier (Oncotest GmbH, Freiburg). Here, xenotransplants of a human colon carcinoma were implanted in suitable mice. After the tumors had grown on and a certain minimum size had been achieved, the therapeutic test was started. aSODcb0989 in the indicated doses (mg/kg body weight) or buffer were intravenously applied twice a week. Also, the tumor sizes were measured twice a week by means of a caliber.

human SOD1 [4] = biological target: T1, human SOD1; experiment: Check for inhibition (neutralization) of SOD, ROS-dependent apoptosis induction and HOCl control trial; format: cell-based; design: endogenous in cells; host or cells: MKN-45 human gastric carcinoma cells
From the text: Thus, the inhibition of the SOD mediated by single domain VHH or Fab fragments (comparison) can be determined by the fact that the apoptosis induction of tumor cells by exogenously added HOCl is employed as the test system. HOCl in a concentration depending manner induces apoptosis that is based on the interaction between HOCl and superoxide anions that results in the formation of aggressive hydroxyl radicals (Bauer G. HOCl-dependent singlet oxygen and hydroxyl radical generation modulate and induce apoptosis of malignant cells. Anticancer Res 33: 3589-3602, 2013). […] That is, the neutralizing effect of single domain VHH or Fab fragments can be determined by checking whether the inhibition of the apoptosis is abolished again by the single domain VHH or Fab fragments to be tested. The quantitative employment of said test system requires linking several simple steps the skilled person is familiar with. In the first step the concentration of commercially available HOCl (or sodium hypochlorite that sufficiently forms HOCl in medium) is determined that generates a significant quantifiable apoptosis signal within a reasonable trial time (1-2 hours). […] As soon as the first two steps have been satisfactorily performed there can take place the actual test of the inhibiting effect of the single domain VHH or Fab fragments. For that, selected concentrations of the fragments to be tested are pre-incubated for 20 minutes with the optimal concentration of SOD determined in advance in step #2. Subsequently, said mixture is added to the test cells. Thereafter, HOCl is added and the apoptosis induction is determined. […]
The preparation was by immunizing alpacas with human SOD1 (SOD1=Cu/ZnSOD [EC 1.15.1.1] purified from human erythrocytes, obtained from Sigma (Schnelldorf), catalogue number S 9636) under supervision of a veterinary, obtaining RNA from the B cells of the animals, reverse transcription, cloning in E. coli and isolation via the phage display technology. […] In the following, this is expressed as ROS-dependent apoptosis induction. […]

[5] = test system: human neuroblastoma line SHEP; experiment: Standard preparation for apoptosis induction in SHEP cells (percentage of apoptotic cells); format: cell-based
Protocol: as §1
Double preparations were examined at the times shown in the text by means of phase contrast reverse microscopy for the percentage of apoptotic cells. Here, the classical apoptosis criteria described and documented in Heinzelmann and Bauer 2010 such as condensation of the nucleus, fragmentation of the nucleus, and membrane blebbing were used. Per single preparation at least 250 randomly selected cells were examined for the presence of apoptosis features.
10 000 cells of the human neuroblastoma line SHEP per 100 μl medium were mixed with the given concentrations of the catalase-neutralizing single domain VHH fragment aCATcb0972, the SOD-neutralizing single domain VHH fragment aSOD0989, the SOD-binding but not neutralizing single domain VHH fragment aSODcb991 and the hybrid molecule aCATaSOD and incubated for 5 hours at 37° C., 5% CO2, before percentages of apoptotic cells were determined.
10 000 cells of the human neuroblastoma line SHEP per 100 μl medium were mixed with the given concentrations of the SOD-neutralizing single domain VHH fragment aSOD0989. Parallel preparations received 20 μM or 100 μM of the NO donor sodium nitroprusside or were incubated without a further additive. After 5 hours at 37° C., 5% CO2 the percentages of apoptotic cells were determined.

T1 sequence (P00441 2-154 limits assumed): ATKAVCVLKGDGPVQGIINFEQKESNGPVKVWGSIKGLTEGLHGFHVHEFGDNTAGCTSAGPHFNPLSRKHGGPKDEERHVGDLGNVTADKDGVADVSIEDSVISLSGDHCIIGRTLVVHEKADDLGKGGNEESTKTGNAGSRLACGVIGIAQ

Row | Molecule | apoptosis induction in the presence of peroxynitrite scavenger FeTPPS ([1]; 25 μM FeTPPS) | apoptosis induction in the presence of HOCl scavenger taurine ([1]; 50 mM taurine) | apoptosis induction in combination with 0.005 pg/ml of the complementary single domain VHH fragment ([1]; 3.5 hours, FIG. 18) | optimum conc. ([1]; Table 1, concentration necessary for optimum apoptosis induction, taken from FIGS. 13A, 13B, 15A, 15B, 20) | optimum conc. ([1]; Table 2, FIG. 20 experiment, 3.5 hours) | ROS signaling path induced ([1]; inhibitor analysis) | binding to human SOD1 (human SOD1 [2]) | tumor growth versus control group ([3]; 0.03 mg/kg intravenously twice a week) | tumor growth versus control group ([3]; 0.3 mg/kg intravenously twice a week) | tumor growth versus control group ([3]; 0.9 mg/kg intravenously twice a week) | neutralization (inhibition) of human SOD1 (human SOD1 [4]) | concentration required for apoptosis-inducing effect relative to the neutralizing single domain VHH fragment ([5]; 5 hours) | apoptosis induction in SHEP cells ([5]; 5 hours at 37° C., 5% CO2)
1 | B1 | complete inhibition by means of FeTPPS | disappearance of an inhibition by taurine | noteworthy synergistic effect | 1.2 pg/mL | 0.35 pg/mL | exclusively via the NO/peroxynitrite path | binds to | there does not result a recognizable difference to the controls | very clearly differs from the control group | in some animals the growth inhibition is enhanced, whereas in other animals there is caused the contrary | neutralizes human SOD1 |  | 
2 | B2 |  |  |  |  |  |  | bind to human SOD1 |  |  |  | do not neutralize it | 10^6 fold | at high concentrations also achieves an apoptosis-inducing effect; also recorded: weak but significant apoptosis induction
